The source of these data is publication PMC6946805.

This experiment deals with Plasmodium yoelii erythrocyte-binding-like protein (PyEBL), C741 allele of P. yoelii nigeriensis strain N67C, HA::Flag-tagged (Plasmodium yoelii nigeriensis strain N67C). The experiment in a line: co-IP; anti-HA antibody immunoprecipitation of HA-tagged PyEBL from supernatants and solubilized pellets of iRBCs of all parasite stages lysed with saponin (0.1%) and centrifuged (1,455 x g, 4°C, 10 min); Western blot of the precipitates with anti-band 3 or anti-TER119 antibody. A general note: Immunoblotting shows a protein as a band on a membrane.

B1: band 3 (natural protein)
chain: MGDMRDHEEVLEIPDRDSEEELENIIGQIAYRDLTIPVTEMQDPEALPTEQTATDYVPSSTSTPHPSSGQVYVELQELMMDQRNQELQWVEAAHWIGLEENLREDGVWGRPHLSYLTFWSLLELQKVFSKGTFLLGLAETSLAGVANHLLDCFIYEDQIRPQDREELLRALLLKRSHAEDLGNLEGVKPAVLTRSGGASEPLLPHQPSLETQLYCGQAEGGSEGPSTSGTLKIPPDSETTLVLVGRANFLEKPVLGFVRLKEAVPLEDLVLPEPVGFLLVLLGPEAPHVDYTQLGRAAATLMTERVFRITASMAHNREELLRSLESFLDCSLVLPPTDAPSEKALLNLVPVQKELLRRRYLPSPAKPDPNLYNTLDLNGGKGGPGDEDDPLRRTGRIFGGLIRDIRRRYPYYLSDITDALSPQVLAAVIFIYFAALSPAVTFGGLLGEKTRNLMGVSELLISTAVQGILFALLGAQPLLVLGFSGPLLVFEEAFFSFCESNNLEYIVGRAWIGFWLILLVMLVVAFEGSFLVQYISRYTQEIFSFLISLIFIYETFSKLIKIFQDYPLQQTYAPVVMKPKPQGPVPNTALFSLVLMAGTFLLAMTLRKFKNSTYFPGKLRRVIGDFGVPISILIMVLVDSFIKGTYTQKLSVPDGLKVSNSSARGWVIHPLGLYRLFPTWMMFASVLPALLVFILIFLESQITTLIVSKPERKMIKGSGFHLDLLLVVGMGGVAALFGMPWLSATTVRSVTHANALTVMGKASGPGAAAQIQEVKEQRISGLLVSVLVGLSILMEPILSRIPLAVLFGIFLYMGVTSLSGIQLFDRILLLFKPPKYHPDVPFVKRVKTWRMHLFTGIQIICLAVLWVVKSTPASLALPFVLILTVPLRRLILPLIFRELELQCLDGDDAKVTFDEENGLDEYDEVPMPV
Regarding B1, the band 3 signal divided by anti-HA signal, ratio N67C/N67, pellet fraction (fold (N67C over N67)) worked out at 3.3 and the band 3 signal divided by anti-HA signal, ratio N67C/N67, supernatant fraction (fold (N67C over N67)) stood at 3.1.
